Test results taken from article PMC8643695 (Nucleic Acids Research, 2021).
Like-named read-outs stand apart in the source and are kept apart here.

Columns and labels:
[1] = tested on: SmCstR (Streptococcus mitis SVGS_061); assay: fluorescence anisotropy; settings: 10 nM dsDNA, 25 mM Tris-HCl, 200 mM NaCl, 2 mM EDTA, 2 mM TCEP, pH 8.0, 25 C
[2] = molecular target: C9A SpCstR C9A (Streptococcus pneumoniae D39) (UniProt A0A0H2ZNA4); assay: fluorescence anisotropy; settings: 10 nM dsDNA, 25 mM Tris-HCl, 200 mM NaCl, 2 mM EDTA, 2 mM TCEP, pH 8.0, 25 C
[3] = molecular target: the molecule itself; assay: crystal structure
[4] = molecular target: the molecule itself; assay: crystal structure; remark: listed apart in the source
[5] = molecular target: the molecule itself; assay: crystal structure; remark: listed apart in the source
[6] = molecular target: C9R SpCstR (Streptococcus pneumoniae D39, UniProt A0A0H2ZNA4 1-85, C9R); assay: fluorescence anisotropy

## TACCTCCAAATATACCCTTATGGGGTATATTAAA (double strand) [S. mitis cst operator]
[1]
  Ka: 1.4e+08 M⁻¹

## Sp adcA (AdcR) operator
[2]
  Ka: 490000 M⁻¹

B1: selenomethionine (SeMet)-substituted C9A SpCstR (natural protein, Streptococcus pneumoniae D39)
chain: TNSKYITALKRSEGQLRGIQKMIEGDRDCADIVTQLTAVRSSVERVIEMIITENLTECINQPLDDSEAQKERLEKAIRYLIKRK
modifications: selenomethionine in place of methionine
[3]
  stoichiometry N: 4

B2: C9A/N55A S. pneumoniae CstR (locus tag SPD_0073) (natural protein, Streptococcus pneumoniae D39)
chain: TNSKYITALKRSEGQLRGIQKMIEGDRDCADIVTQLTAVRSSVERVIEMIITEALTECINQPLDDSEAQKERLEKAIRYLIKRK
[4]
  stoichiometry N: 4

B3: C9A S. pneumoniae CstR (locus tag SPD_0073) (natural protein, Streptococcus pneumoniae D39)
chain: TNSKYITALKRSEGQLRGIQKMIEGDRDCADIVTQLTAVRSSVERVIEMIITENLTECINQPLDDSEAQKERLEKAIRYLIKRK
[5]
  stoichiometry N: 6

B4: S. mitis cst operator (dsDNA)
DNA 1: TACCTCCAAATATACCCTTATGGGGTATATTAAA
DNA 2: TTTAATATACCCCATAAGGGTATATTTGGAGGTA
[6]
  binding result: binds
